Target: DNA-dependent protein kinase catalytic subunit (human (endogenous in HCT-116), UniProt P78527 1-4128)
Assay: cell-based or functional assay

DNA-dependent protein kinase catalytic subunit, sequence (P78527 whole entry): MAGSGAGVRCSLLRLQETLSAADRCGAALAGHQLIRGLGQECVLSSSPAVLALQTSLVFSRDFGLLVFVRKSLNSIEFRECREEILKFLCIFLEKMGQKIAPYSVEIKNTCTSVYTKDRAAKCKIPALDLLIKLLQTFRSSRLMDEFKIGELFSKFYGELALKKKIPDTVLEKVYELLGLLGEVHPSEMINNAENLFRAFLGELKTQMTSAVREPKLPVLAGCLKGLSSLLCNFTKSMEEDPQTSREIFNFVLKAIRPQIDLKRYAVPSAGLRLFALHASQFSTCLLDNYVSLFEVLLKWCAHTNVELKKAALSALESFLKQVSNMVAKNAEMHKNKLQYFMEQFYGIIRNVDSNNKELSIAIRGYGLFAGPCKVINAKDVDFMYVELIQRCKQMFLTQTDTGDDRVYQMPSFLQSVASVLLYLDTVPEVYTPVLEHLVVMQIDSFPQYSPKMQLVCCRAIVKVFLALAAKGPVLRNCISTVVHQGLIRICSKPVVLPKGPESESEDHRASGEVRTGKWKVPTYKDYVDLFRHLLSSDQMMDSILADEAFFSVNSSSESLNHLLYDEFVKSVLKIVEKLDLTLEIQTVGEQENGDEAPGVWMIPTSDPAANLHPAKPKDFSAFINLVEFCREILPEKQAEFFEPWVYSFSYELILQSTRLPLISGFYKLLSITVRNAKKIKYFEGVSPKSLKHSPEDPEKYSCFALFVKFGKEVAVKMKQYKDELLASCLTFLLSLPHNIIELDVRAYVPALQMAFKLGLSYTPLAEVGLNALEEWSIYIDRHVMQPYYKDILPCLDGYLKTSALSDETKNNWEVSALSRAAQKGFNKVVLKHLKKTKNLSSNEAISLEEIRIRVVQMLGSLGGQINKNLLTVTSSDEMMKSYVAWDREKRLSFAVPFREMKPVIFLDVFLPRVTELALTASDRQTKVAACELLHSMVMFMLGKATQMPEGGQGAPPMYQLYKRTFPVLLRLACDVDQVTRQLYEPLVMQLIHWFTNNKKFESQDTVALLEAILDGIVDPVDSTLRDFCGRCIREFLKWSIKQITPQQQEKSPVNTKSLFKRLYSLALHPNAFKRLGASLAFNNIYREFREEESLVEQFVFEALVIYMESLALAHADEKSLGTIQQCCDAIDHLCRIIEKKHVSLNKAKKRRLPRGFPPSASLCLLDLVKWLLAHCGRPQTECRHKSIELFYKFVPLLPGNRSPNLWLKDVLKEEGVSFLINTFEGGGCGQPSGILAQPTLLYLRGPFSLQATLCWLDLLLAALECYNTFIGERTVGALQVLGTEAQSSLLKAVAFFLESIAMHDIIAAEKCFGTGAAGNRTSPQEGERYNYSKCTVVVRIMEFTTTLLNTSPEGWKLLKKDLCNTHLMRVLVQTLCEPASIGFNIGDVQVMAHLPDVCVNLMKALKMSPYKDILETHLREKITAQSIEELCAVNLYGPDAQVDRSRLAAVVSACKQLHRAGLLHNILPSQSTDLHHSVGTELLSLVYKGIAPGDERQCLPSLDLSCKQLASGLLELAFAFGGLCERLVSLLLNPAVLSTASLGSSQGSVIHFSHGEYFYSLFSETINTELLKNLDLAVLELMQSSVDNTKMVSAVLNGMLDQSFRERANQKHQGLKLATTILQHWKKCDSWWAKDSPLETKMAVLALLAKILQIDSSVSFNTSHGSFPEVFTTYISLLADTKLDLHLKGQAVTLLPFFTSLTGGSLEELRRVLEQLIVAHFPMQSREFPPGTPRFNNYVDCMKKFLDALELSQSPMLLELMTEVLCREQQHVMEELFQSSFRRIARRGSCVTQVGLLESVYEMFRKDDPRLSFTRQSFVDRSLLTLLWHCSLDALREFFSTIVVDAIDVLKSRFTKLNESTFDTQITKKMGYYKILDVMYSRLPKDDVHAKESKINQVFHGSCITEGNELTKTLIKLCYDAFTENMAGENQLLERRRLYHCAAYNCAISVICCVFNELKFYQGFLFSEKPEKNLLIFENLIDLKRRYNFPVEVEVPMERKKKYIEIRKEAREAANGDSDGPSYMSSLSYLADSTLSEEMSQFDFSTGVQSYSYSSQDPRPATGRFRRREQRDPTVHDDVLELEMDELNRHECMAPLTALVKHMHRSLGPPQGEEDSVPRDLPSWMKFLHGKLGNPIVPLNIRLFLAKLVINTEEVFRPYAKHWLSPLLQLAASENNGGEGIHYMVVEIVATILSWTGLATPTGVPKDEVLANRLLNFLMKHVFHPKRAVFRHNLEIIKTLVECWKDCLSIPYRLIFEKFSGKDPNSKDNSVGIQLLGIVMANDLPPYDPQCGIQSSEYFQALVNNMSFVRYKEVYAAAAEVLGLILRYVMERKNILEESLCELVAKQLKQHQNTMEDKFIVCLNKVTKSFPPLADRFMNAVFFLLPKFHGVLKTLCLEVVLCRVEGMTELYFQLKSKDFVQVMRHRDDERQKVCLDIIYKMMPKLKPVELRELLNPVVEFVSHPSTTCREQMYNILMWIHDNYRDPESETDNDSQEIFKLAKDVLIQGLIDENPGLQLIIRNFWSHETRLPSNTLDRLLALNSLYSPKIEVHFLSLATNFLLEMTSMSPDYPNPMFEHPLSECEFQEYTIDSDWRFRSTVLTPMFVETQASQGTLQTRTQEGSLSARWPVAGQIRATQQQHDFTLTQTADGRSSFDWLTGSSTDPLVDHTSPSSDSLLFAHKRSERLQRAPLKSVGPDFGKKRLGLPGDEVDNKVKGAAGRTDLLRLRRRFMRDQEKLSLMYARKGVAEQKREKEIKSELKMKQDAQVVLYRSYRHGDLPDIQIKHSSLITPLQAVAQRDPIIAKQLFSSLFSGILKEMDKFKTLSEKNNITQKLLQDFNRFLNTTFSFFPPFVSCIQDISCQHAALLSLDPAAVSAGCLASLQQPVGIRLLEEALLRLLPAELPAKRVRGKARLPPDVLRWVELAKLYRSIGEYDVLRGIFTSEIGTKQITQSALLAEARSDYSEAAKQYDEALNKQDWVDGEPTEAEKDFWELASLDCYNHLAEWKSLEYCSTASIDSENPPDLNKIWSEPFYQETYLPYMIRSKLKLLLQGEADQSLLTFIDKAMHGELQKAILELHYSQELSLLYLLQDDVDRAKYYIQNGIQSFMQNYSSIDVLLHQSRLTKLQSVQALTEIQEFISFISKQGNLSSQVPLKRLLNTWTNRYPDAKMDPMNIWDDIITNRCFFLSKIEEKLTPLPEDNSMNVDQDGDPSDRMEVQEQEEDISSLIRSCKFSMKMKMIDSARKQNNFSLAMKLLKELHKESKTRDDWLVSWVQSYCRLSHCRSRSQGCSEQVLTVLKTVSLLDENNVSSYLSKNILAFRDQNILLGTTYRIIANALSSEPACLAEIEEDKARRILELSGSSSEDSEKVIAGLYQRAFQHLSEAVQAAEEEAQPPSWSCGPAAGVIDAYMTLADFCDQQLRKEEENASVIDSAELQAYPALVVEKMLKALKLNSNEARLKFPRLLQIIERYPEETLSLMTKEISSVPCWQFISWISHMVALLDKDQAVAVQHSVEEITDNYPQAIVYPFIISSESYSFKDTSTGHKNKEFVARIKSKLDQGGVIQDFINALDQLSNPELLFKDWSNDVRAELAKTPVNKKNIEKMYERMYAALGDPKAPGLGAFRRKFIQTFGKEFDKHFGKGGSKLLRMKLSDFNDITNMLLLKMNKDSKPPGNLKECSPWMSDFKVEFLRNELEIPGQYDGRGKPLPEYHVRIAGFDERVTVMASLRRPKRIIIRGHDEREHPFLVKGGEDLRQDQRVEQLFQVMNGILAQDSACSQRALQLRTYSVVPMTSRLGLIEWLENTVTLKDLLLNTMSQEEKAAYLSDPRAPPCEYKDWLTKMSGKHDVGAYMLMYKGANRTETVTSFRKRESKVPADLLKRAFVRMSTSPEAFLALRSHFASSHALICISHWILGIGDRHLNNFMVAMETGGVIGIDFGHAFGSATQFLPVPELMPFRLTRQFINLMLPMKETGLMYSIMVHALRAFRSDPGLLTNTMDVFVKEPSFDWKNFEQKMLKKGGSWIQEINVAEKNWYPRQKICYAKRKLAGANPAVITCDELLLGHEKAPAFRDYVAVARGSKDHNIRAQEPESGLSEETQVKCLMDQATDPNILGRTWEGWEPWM

DNA-PK kinase activity in 15-LOX-1 expressing whole cell extract lysates: 1.6 fold
B1: 15-lipoxygenase-1 (enzyme, human, UniProt P16050 1-662, looked up)
chain: MGLYRIRVSTGASLYAGSNNQVQLWLVGQHGEAALGKRLWPARGKETELKVEVPEYLGPLLFVKLRKRHLLKDDAWFCNWISVQGPGAGDEVRFPCYRWVEGNGVLSLPEGTGRTVGEDPQGLFQKHREEELEERRKLYRWGNWKDGLILNMAGAKLYDLPVDERFLEDKRVDFEVSLAKGLADLAIKDSLNVLTCWKDLDDFNRIFWCGQSKLAERVRDSWKEDALFGYQFLNGANPVVLRRSAHLPARLVFPPGMEELQAQLEKELEGGTLFEADFSLLDGIKANVILCSQQHLAAPLVMLKLQPDGKLLPMVIQLQLPRTGSPPPPLFLPTDPPMAWLLAKCWVRSSDFQLHELQSHLLRGHLMAEVIVVATMRCLPSIHPIFKLIIPHLRYTLEINVRARTGLVSDMGIFDQIMSTGGGGHVQLLKQAGAFLTYSSFCPPDDLADRGLLGVKSSFYAQDALRLWEIIYRYVEGIVSLHYKTDVAVKDDPELQTWCREITEIGLQGAQDRGFPVSLQARDQVCHFVTMCIFTCTGQHASVHLGQLDWYSWVPNAPCTMRLPPPTTKDATLETVMATLPNFHQASLQMSITWQLGRRQPVMVAVGQHEEEYFSGPEPKAVLKKFREELAALDKEIEIRNAKLDMPYEYLRPSVVENSVAI

Source: paper PMC2613223 (International journal of cancer. Journal international du …, 2008)
